Data on one molecule can be found in patent publication US20210054084A1 (published 2021).

The assay addresses T1, recombinant human CD25 his tagged (UniProt P01589 22-213).
T1 chain: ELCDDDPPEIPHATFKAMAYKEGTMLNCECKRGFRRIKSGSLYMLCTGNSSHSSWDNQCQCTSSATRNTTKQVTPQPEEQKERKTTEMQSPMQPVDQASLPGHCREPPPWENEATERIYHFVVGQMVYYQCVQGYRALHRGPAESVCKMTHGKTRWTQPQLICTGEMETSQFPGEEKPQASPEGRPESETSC
Briefly: BLI (Octet). (BLI is a label-free optical method that tracks binding on a fibre tip over time.)

B1: Antibody 1 as human IgG1 expressed in mammalian cells (antibody, V domains shown)
VH: EVQLVESGGGLIQPGGSLRLSCAASGFTLDSYGVSWVRQAPGKGLEWVGVTSSGGSAYYADSVKGRFTISRDNSKNTLYLQMNSLRAEDTAVYYCARDRYVYTGGYLYHYGMDLWGQGTLVTVSS
VL: DIQMTQSPSSLSASVGDRVTITCRASQSISDYLAWYQQKPGKVPKLLIYAASTLPFGVPSRFSGSGSGTDFTLTISSLQPEDVATYYCQGTYDSSDWYWAFGGGTKVEIK
Broadly, the Kd is the equilibrium constant for the complex coming apart. On to B1, for which the Kd was found to be 0.8 nM.
